The test addresses Maleimide-modified SpyTag peptide (MCA-SpyTag). Description: QCMD, nanobody-SpyCatcher coupling to maleimide-SpyTag peptide on HDT SAM.

For “VHH72-8 aa-spyCatcher-3C cleavage site-His8”, the Density per cm^2 came out at 6.5e+12 per cm^2 and the gained mass (ng/cm^2) amounted to 313 ng/cm^2.

The record behind these values is US20250027901A1.
